What all share (experiment): IEDB peptide-MHC binding, purified MHC/competitive/radioactivity; filed as Kd, often an IC50 or EC50 that approximates it; ≥ and ≤ were set here for values at or beyond the usual limits of such assays
Common to all, as to settings: source organism: Toxoplasma gondii

The target in assay [1] is HLA-A*02:06.
The target in assay [2] is HLA-A*68:02.
In assay [3] the target is HLA-A*02:01.
Assay [4] addresses HLA-A*02:02.
In assay [5] the target is HLA-A*02:03.

Results on 8 sequences are retold here after the Immune Epitope Database (IEDB).

ITMGSLFFV: the Kd in assay [1] was 0.26 nM; in assay [2], 1.1 nM; in assay [3], 0.16 nM; in assay [4], 0.64 nM; in assay [5], 0.5 nM.
Turning to FVIFACNFV, the Kd in assay [1] worked out at 5.6 nM; in assay [2], 1.2 nM; in assay [3] it was 34 nM; in assay [4] it was 11 nM; in assay [5], 6.5 nM.
On to FLSLSLLVI, for which the Kd in assay [1] was not below 10000 nM; in assay [2], 9830 nM; in assay [3], 736 nM; in assay [4], 173 nM; in assay [5], 83 nM.
For the sequence FMIAFISCFA, the dissociation constant (Kd) in assay [1] is 112 nM; in assay [2] it was 397 nM; in assay [3], 32 nM; in assay [4], 56 nM; in assay [5] it was 56 nM.
For the sequence FLTDYIPGA, the Kd in assay [1] was 1.2 nM; in assay [2], 2100 nM; in assay [3], 0.7 nM; in assay [4] it was 7.1 nM; in assay [5] it was 7.8 nM.
With FLLGLLVHV, the Kd in assay [1] stood at 9.9 nM; in assay [2] it was 173 nM; in assay [3], 6.4 nM; in assay [4], 37 nM; in assay [5], 4.6 nM.
With FMIVSISLV, the Kd in assay [1] is 6.2 nM; in assay [2], 48 nM; in assay [3], 16 nM; in assay [4], 1.8 nM; in assay [5] it was not above 1 nM.
For GLAAAVVAV, the equilibrium dissociation constant (Kd) in assay [1] turned out to be 55 nM; in assay [2] it was 263 nM; in assay [3], 9.6 nM; in assay [4], 31 nM; in assay [5] it was 1.3 nM.
